B1: YGL131C 1018-1031 (peptide)
chain: LKHTKNKPKNPDTA
B2: YAR002W 346-359 (peptide)
chain: LNATKISPSAPSKD
B3: YOL125W 162-175 (peptide)
chain: LMSLKRFPQLPSNT
B4: YNL231C 198-211 (peptide)
chain: LIDFKDYPDVPKVP
B5: YBL101W-B 1606-1619 (peptide)
chain: LIWHKNKPTKPDNK
B6: YKL196C 79-92 (peptide)
chain: LITDKEYPVRPAYT
B7: YIL129C 688-701 (peptide)
chain: LLVTKERPRFPEDD
B8: YBL005W-B 1591-1604 (peptide)
chain: LIWHKSKPVKPTNK
B9: YER105C 312-325 (peptide)
chain: LLPTKLIPSIPGGK
B10: YAR009C 1032-1045 (peptide)
chain: LIWHKNKPTEPDNK
B11: YIL047C 206-219 (peptide)
chain: LKDNRLLPSWPKRG
B12: YMR179W 684-697 (peptide)
chain: LKKQKAIPSSPSGM
B13: YBR055C 407-420 (peptide)
chain: LLEERNNPDIPVDK
B14: YBR239C 260-273 (peptide)
chain: LNFKRLLPRDPSEK

Target: T1, Myo5 SH3 (MYO5_YEAST), Q04439
T1 chain: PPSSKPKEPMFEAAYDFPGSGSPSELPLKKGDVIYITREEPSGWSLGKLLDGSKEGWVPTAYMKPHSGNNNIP
Assay: SPOT array

Binder	normalised SPOT signal, Boehringer light units (BLU); mean over the file's lines of this peptide
B1	406
B2	114
B3	348
B4	154
B5	300
B6	136
B7	33.7
B8	354
B9	172
B10	155
B11	518
B12	307
B13	312
B14	554

Target: T2, Boi1 SH3 (BOI1_YEAST), P38041
T2 chain: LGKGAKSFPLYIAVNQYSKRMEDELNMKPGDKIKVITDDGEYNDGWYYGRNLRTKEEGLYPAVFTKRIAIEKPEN
Assay: SPOT array

Binder	normalised SPOT signal, Boehringer light units (BLU); mean over the file's lines of this peptide
B1	1870
B2	51.9
B3	796
B4	15.5
B5	268
B6	139
B7	126
B8	139
B9	-0
B10	120
B11	152
B12	711
B13	85.4
B14	1070

Target: T3, Boi2 SH3 (BOI2_YEAST), P39969
T3 chain: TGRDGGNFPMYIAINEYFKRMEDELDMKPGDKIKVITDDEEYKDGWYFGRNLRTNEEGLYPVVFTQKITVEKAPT
Assay: SPOT array

Binder	normalised SPOT signal, Boehringer light units (BLU); mean over the file's lines of this peptide
B1	25.8
B2	0
B3	294
B4	47.9
B5	27.9
B6	21.9
B7	7.5
B8	30.5
B9	3.5
B10	29.2
B11	21.8
B12	16.1
B13	19.6
B14	57.4

These binders were tested against Sho1 SH3 (SHO1_YEAST), P40073 (assay: SPOT array).
Sho1 SH3 (SHO1_YEAST), P40073, sequence (P40073 295-366): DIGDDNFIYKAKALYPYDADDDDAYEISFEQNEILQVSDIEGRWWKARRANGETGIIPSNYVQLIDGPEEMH

Binder	normalised SPOT signal, Boehringer light units (BLU); mean over the file's lines of this peptide
B1	45.5
B2	31.8
B3	661
B4	36
B5	106
B6	7.7
B7	47.5
B8	106
B9	17.1
B10	82.2
B11	350
B12	204
B13	26.1
B14	1360

Target: T4, Yfr024 SH3 (LSB3_YEAST), P43603
T4 chain: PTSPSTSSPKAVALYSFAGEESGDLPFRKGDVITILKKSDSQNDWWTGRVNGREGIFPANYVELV
Assay: SPOT array

Binder	normalised SPOT signal, Boehringer light units (BLU); mean over the file's lines of this peptide
B1	47.5
B2	38.8
B3	2420
B4	12.7
B5	862
B6	126
B7	168
B8	1320
B9	154
B10	587
B11	3640
B12	255
B13	38.8
B14	1290

Target: T5, Rvs167 SH3 (RV167_YEAST), P39743
T5 chain: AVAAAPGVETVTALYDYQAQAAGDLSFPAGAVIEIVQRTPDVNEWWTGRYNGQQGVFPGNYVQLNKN
Assay: SPOT array

Binder	normalised SPOT signal, Boehringer light units (BLU); mean over the file's lines of this peptide
B1	39.5
B2	29.4
B3	1340
B4	28.2
B5	85.3
B6	17.5
B7	16.4
B8	71.9
B9	17.2
B10	102
B11	144
B12	35.2
B13	38.3
B14	1630

Target: T6, Yhr016c SH3 (YSC84_YEAST), P32793
T6 chain: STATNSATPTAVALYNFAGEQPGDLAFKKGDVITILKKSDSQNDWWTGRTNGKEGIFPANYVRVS
Assay: SPOT array

Binder	normalised SPOT signal, Boehringer light units (BLU); mean over the file's lines of this peptide
B1	16.8
B2	8.4
B3	554
B4	2
B5	71.1
B6	19.3
B7	28.4
B8	73
B9	14.3
B10	94.9
B11	488
B12	32.4
B13	19.5
B14	3490
